Measurements published in a protein production outcome set (Wang et al. 2014).

Assay: label from the status in PepcDB records

Sequence: MDIVTNKIVVEKYNFETTMEENQPFENKIELEVHEVEPVDGNVELMAKGKIFKITIPFLLVLENFRIDGRISRIIQLKDFFGQFSDLEAKDVEGLSNPLIDYIKRLTYDVTEIAFDEPGVSLDF
- protein production: failed

Sequence: MDNALTFVISTLCILALCYRFYGVFFVRKVLRADDSVVTPSHTFEDGKNYVPTKKWVNAGQHFAAIAAAGPLVGPVLAAQFGYLPGFLWLLVGCVVGGAVHDTVVLFASMKHNGKSLSNVAKAELGPVAGWCTGLAMLFIITITMAGLSMVVVHALERNPWGTFAVFMTIPIAIAVGLYERFTGNHKGATWVGIIAIMVAVLAGPYIQGTLLGDWLTLRVDSVALALPIYAFFASALPVWLLLTPRGYLSSFMKIGVFGALVVGVVIINPTIQFPALTDFIHGGGPVLAGPVWPFISITIACGAISGFHAFIGSGTTPKLVDKWSDIRPVAFGAMLAECMVAVLALVAATALHPADYFAINASPAAFASLGMEVVDLPHLSQEIGMDLAGRTGGAVTLAVGMTFIFTKLPWFATLSSYFFQFVIMFEAVFILTAVDSGTRVARYLIQDLGGDLYAPLKRLDWIPGSIGASVAACALWGYLLTSGDINSVWALFGVSNQLMASIGLIIGATIILRVAAKRIYMLTCLIPLAYLFVTVNYAGYWMIANVYLNTQARGYNPINAGISAIMMVLGLIILITAFGKWKTMLALPKSLRSGEVPAPSLP
- protein production: failed

Sequence: NKELNELNIIKLTRMMYYGQLLHYLSIGLTLVMTYSCNLRCPYCYEGDIKSKGGLLTREKIETILTFASAHAQGDKKPTISVSFYGGEPLLNWKGCEYTLQRLEEMKENKEIRDYSAGFVTNGTLINEDIVDAINNYNVYSMQITLDGPKEIHDKRRIKSNGEGTFDQIIENIKLLNRRIANKNFHLALRINVDKTNYKKIPELLDFLKDEGLGGIPISYGIVRGNLPYCSSNCGVYFSGSDLQKYLPYLWKEAYRRGFEVWTRPNL
- protein production: failed

Sequence: MSAYPPGAAPSDPVDPVTLEAGQTAKVTRPTGRFMLGHPARLIALGFGSGLSPVSPGTVGTLLGWLSFIVISKWIDPTTWLWIIAGGFVIGIWACLRTARDMGVYDHGSMVWDEIVAFWLVLLFVMPTGFWGQFAAFVWFRFFDIVKPAPIRYYDRTLKGPGFTGAFGVMFDDIFAAFYTLLVFALWRSI
- protein production: failed

Sequence: MSVKMKKCSREDLQTLQQLSIETFNDTFKEQNSPENMKAYLESAFNTEQLEKELSNMSSQFFFIYFDHEIAGYVKVNIDDAQSEEMGAESLEIERIYIKNSFQKHGLGKHLLNKAIEIALERNKKNIWLGVWEKNENAIAFYKKMGFVQTGAHSFYMGDEEQTDLIMAKTLILEHHHHHH
- protein production: not failed

Sequence: MSELTAFGHSLSSGYEVVVIKPQSLSDTTLIVQALRADKAVILNLEHLDVAEAQRISDFAAGSTYAINGHQSRLGDGVFLFTPNVINIQERTAVPTPAGLV
- protein production: failed

Sequence: MPLTDTALKALKPRDRIYSVADERGLSVEVYPTGGIVWRFRYRLAGRYEKLTLGKYPALSLRNARLKRDEAASLVAMGTSPARQKQLAKVTAADAMTVRDFAERFFREIQSRDRKDSTMPRRYLDKDILPFVGDKPMREVTAEEIRSLIWRKKEQGFDATAGQIRGVLKRLCDYAVTCGLMPTNPVLALPMRHVYKAVSRDRALSPDEIRLFLRAVWASRIRRQFKLALHLILLTMVRKSELLLARWDHVHLDQAQWHIPAEHSKTGKPHIVYLSRQAVVLFEALRVLAGGSALVMPGSGTLTRPFAHNALNHALGKAMQWQGIHAFTIHDLRRTASTWLHEHGWASDVVEKALNHSIGGVRGVYNRAEYADQRRQMLQCWADFIEKQLKTDHLLMVCHTELDGAKPGTP
- protein production: failed

Sequence: AGKPDWDWQPAPKNEALIAAVSAAAQEGLNAAYQIREKQARTTKLREVYAAVQAAMAEQAAQAGQPAPDSVGVDNILFDLEARIVRSQILNGEPRIDGRDTRTVRP
- protein production: not failed

Sequence: QEYILALADVPSSPYGVKIIELSQTTAKVSFNKPDSHGGVPIHHYQVDVKEVASEIWKIVRSHGVQTMVVLNNLEPNTTYEIRVAAVNGKGQGDYSKIEIFQTLPV
- protein production: not failed

Sequence: MNDPMGETGFSRESAPEIVFSETDMAAAEQLMHLSEEETVSCSSSTGGDCGGGGGDKIKHEYVSSRIGNELNDGVRGNSILGVEKKRKRTVMKEKKFRSLESIYKGTKEIRD
- protein production: failed

Sequence: MEKFTLSRIINIIMFLYILSIYLFTFRDGLNSISNFLALTFIAAIWSNVLLTRKKIVFNKFLFIYFLFILVCFVSVFFAINQSIAVSKIKTIILIYFLMISLVNYIDTFEKLRSFLLSFVYSGFITGVYILASSDFSQVTRYGSELGNVNSIGMIIGISSIFCFYFIIEEKKYLLYTPIMLINIFVVFLTGSRKALLFVVLTIIAILLIQQKAGIKGKIKALIGILVTLVISLYVIFNVELLYTIIGVRMEHLFSYILGKGANEGSINIRANMIDMGLDWFQERPITGYGIDNFRSLYGIEAIGGEFTYSHNNLVELLVGIGIIGTFLFYLTHFIVLKGLYKESKKNQKSALCYSFIAIIGIYIILSVGLIYYYDKHISMILAIGSIIYKIGKPSGEELTQKTLE
- protein production: failed

Sequence: MSLRARIHSPEEHGSRGEDGHLVASYRAKLLEEIDLAEMSALATAERRARLERVLGHIISREGPVLSTVERSQLIRRVVDEALGLGILEPLLEDASITEIMVNGPDAIFVERAGRVEQLPLRFASHDQLMQTIERIVSTVNRRVDESNPMVDARLPSGERVNVIIPPLSLTGATLTIRRFPRSFTLQELIGLGSLDENMLYLLAGLVQARFNIIVSGATGTGKTTLLNALSGLIPESDRIITIEDSAELQLQQAHVIRLESRPPNVEGQGRITIRDLVRNSLRMRPDRIVVGEVRGGESLDMLQAMSTGHDGSLATVHANSAEDALMRLQTLASMSDVEIPFVALHDQINSSVDVLIQLTRFADGARRITEIALLASHGGEPYRLATVARFNARPMSADGRVVGAYEYHPLPHRTAERLYMAGQPIPQAFGVAHTPDQLTTREAR
- protein production: failed

Sequence: SSFQGPLDATVVVNLQSPTLEEKNEFPEDLRTELMQTLGSYGTIVLVRINQGQMLVTFADSHSALSVLDVDGMKVKGRAVKI
- protein production: not failed

Sequence: MRINPGEITKVLEEKIKSFEEKIDLEDTGKVIQVGDGIARAYGLNKVMVSELVEFVETGVKGVAFNLEEDNVGIIILGEYKDIKEGHTVRRLKRIIEVPVGEELLGRVVNPLGEPLDGKGPINAKNFRPIEIKAPGVIYRKPVDTPLQTGIKAIDSMIPIGRGQRELIIGDRQTGKTAIAIDTIINQKGQGVYCIYVAIGQKKSAIARIIDKLRQYGAMEYTTVVVASASDPASLQYIAPYAGCAMGEYFAYSGRDALVVYDDLSKHAVAYRQLSLLMRRPPGREAYPGDIFYLHSRLLERAVRLNDKLGGGSLTALPIVETQANDISAYIPTNVISITDGQIYLEPGLFYAGQRPAINVGLSVSRVGGSAQIKAMKQVAGMLRIDLAQYRELETFAQFATELDPATRAQIIRGQRLMELLKQEQYSPMPVEEQVVVLFAGVRGYLDDLPVEEVRRFEKEFLRFMHEKHQDILDDIKTKKELTSETEEKLKKAIEEFKTTFRV
- protein production: not failed

Sequence: MRIVAPVMPRHFDEAQAIDISKYEDVNLIEWRADFLPKDEIVAVAPAIFEKFAGKEIIFTLRTVQEGGNITLSSQEYVDIIKEINAIYNPDYIDFEYFTHKSVFQEMLDFPNLILSYHNFEETPENLMEAFSEMTKLAPRVVKIAVMPQSEQDVLDLMNYTRGFKTLNPEQEFATISMGKLGRLSRFAGDVIGSSWTYVSLDHVSGPGQVTLNDMKRIIEVLEMDISN
- protein production: not failed

Sequence: MVSSSNNSSIAKAFVTVAAIFIIFAGIKTAANILVPFLLSVFIAIICNPLINKASEYKIPKAVSVIFVIVVFVTMAVFLTGLVGSSLNELSQQIPQYRIQLKEQFTWLTSFLNSHDIQLSSSIVTEYFDPAAAMGLAADMLSSFGSVMTNLFLIILTVVFMLFESSTIPHKLHLALDDPQMRLNQIERFLSSVNQYIAIKTLVSIATGCIVSLMLWIFGLDFFLLWGVLAFLLNYIPNIGSIIAAVPPMTLAILQLSIGEAGAIGLGFVLINMVMGNIIEPRYLGKGLGLSTLVVFLSLIFWGWLLGTVGMLLSVPLTMILKIGLESSPEGRWLAVMLSDEVELVDKTEQALLD
- protein production: failed
